Experimental data as given in the Human Domainome abundance scans (Beltran et al. 2025).

B1: POU domain, class 2, transcription factor 2, residues 200 to 269; numbered along this chain, P09086 (parent)
chain: LEELEQFARTFKQRRIKLGFTQGDVGLAMGKLYGNDFSQTTISRFEALNLSFKNMCKLKPLLEKWLNDAE

Variants of: B1
Assay: abundance fitness (aPCA) (normalised: wild type 0, dead -1); higher = more abundant; growth selection in yeast, the domain comes from the species named
Conditions: Homo sapiens

Abundance fitness of substitutions, site by site:
F37: L -0.052, V -0.065, A -0.152, Y -0.048, T -0.175, D -0.4, E -0.255, S -0.24, G -0.28, R -0.39, W -0.012
T40: C -0.038, G -0.036, E -0.002, M -0.058, R -0.021, D 0.02, F -0.041, H -0.161, L -0.078, Y 0.031, V 0.068, I -0.285, P -0.072, S 0.032, N -0.107, K 0.232, Q 0.009
Q39: P 0.035, I -0.017, K -0.029, R -0.019, F -0.022, V -0.002, C -0.077, L -0.046, N -0.306, G -0.027, T 0.042, D 0.017, E 0.01, M -0.024, A -0.032, S 0.005, H -0.11
L32: W -0.201, Q 0.04, N -0.163, V -0.098, H -0.126, I -0.049, C -0.083, T -0.071, G -0.08, P -0.209, A -0.006, R -0.022, D 0.037, K 0.01, Y 0, F -0.093, M -0.021, S -0.01
S43: Q 0.095, E -0.018, A 0.005, D -0.049, G 0, T -0.05, V -0.098, I -0.024, P -0.002, L -0.07, W -0.047, H -0.034, N -0.046, C -0.149, F -0.227, K 0.062
N35: I -0.15, F -0.029, Y 0, V -0.091, W -0.026, E 0.106, A -0.016, H -0.114, P -0.017, S -0.078, D -0.095, R -0.022, Q -0.104, M -0.049, T -0.203
Y33: P -0.068, W -0.105, K -0.062, M -0.055, D -0.036, S -0.041, V -0.06, Q -0.07, F -0.062, N -0.156, T -0.016, R -0.17, I -0.076, H -0.01, L -0.024, A -0.057, C -0.043, E -0.074
M29: A -0.131, I -0.211, Q -0.463, F -0.146, D -0.314, T -0.075, C -0.076, H -0.681, R -0.655, P -0.664, Y -0.611, E -0.976, L 0.072, S -0.552, N -0.616, W -0.557, V 0.003, K -0.95
K31: F -0.336, D -0.114, R 0.002, H -0.119, P -0.142, V -0.115, G -0.047, Y -0.178, N -0.166, C -0.054, L -0.092, Q -0.04, T -0.036, S -0.033, I -0.136, W -0.246, E -0.064, M -0.168, A -0.019
T41: Y -0.078, L -0.041, Q -0.061, M 0.04, E -0.029, W -0.014, N -0.062, R -0.179, A -0.048, V 0.024, I -0.108, H 0.023, S -0.059, K -0.09, F -0.114, G -0.193, C 0.094, D 0.029
